Measured values published in patent US5645817, “Granulocyte-binding antibody constructs, their preparation and use” (Behringwerke Aktiengesellschaft, dated 1997).

Target: carcinoembryonic antigen (CEA) (Homo sapiens (Human), UniProt P06731)
Test: characterisation according to Example 2 (ELISA on CEA); told in words
Protocol: Supernatants from BHK cells, which had been transfected with the DNA constructs of the second version of the hum 250/183, were tested for their content of humMab and for the specificity of the humMab.
However, the polystyrene plates were coated with 75 μl of CEA at a concentration of 15 μg/ml. Equal volumes of different concentrations (consecutively dilutions 1:2)

B1: hum 250/183 (second version of the humanized Mab BW 250/183) (antibody, V domains shown)
VH: QVQLQESGPGLVRPSQTLSLTCTVSGFSDYYMNWVRQPPGRGLEWIGFISNKPNGHTTEYSASVKGRVTMLRDTSKNQFSLRLSSVTAADTAVYYCARDKGIRWYFDVWGQGSLVTVSS
VL: DIQMTQSPSSLSASVGDRVTITCRASSSVSYMHWYQQKPGKAPKPLIYATSNLASGVPSRFSGSGSGTDFTFTISSLQPEDIATYYCQQWSSNPLTFGQGTKVEIKR
B1: binds.
